Data from publication doi:10.1101/2022.04.25.489375 (bioRxiv, 2022).

B1: Phosphomannose isomerase from T. barophilus (enzyme, UniProt F0LL70 1-113, looked up)
chain: MKAEIKEFIDRGTYRKAPLFEGELPEGSYAQIVEIKPKQTVPKHYHEKQYELFYIISGQAKLGIEEREYDAKPGDIFLVKPKTVHWVVNKKEEPFRLFVIKLNYFGDDSVWLE

Assays:
[1] = target: Phosphomannose isomerase from T. kodakarensis (T. kodakarensis); test: SEC
SEC = target: the molecule itself; test: SEC

Molecule | stoichiometry N [1] | stoichiometry N (SEC)
Phosphomannose isomerase from T. kodakarensis (enzyme) | 2 | –
B1 | – | 2
